# US11814447B2, “Peptide ligands for binding to EphA2” (BICYCLERD LIMITED, priority 2018, dated 2023)
# Starred links: 1 amine or outer side, 2 acyl side, 3 side chain; linkers in the order of their positions; H or OH if unused. Positions of bridges follow the written chain, without caps; N, C: chain ends. Non-standard residues stand in square brackets, D forms with d. Primed or numbered codes have the meaning given here. No end group written: not given here. TBMB′ = 1,3,5-tris(bromomethyl)benzene, 1,3,5-tris(methylene)benzene core, three thioethers to Cys; 1Nal = N[C@@H](Cc1cccc2ccccc12)C(=O)O; TBMB = c1c(C[*:1])cc(C[*:3])cc1C[*:2]; Hyp = O=C(O)[C@@H]1C[C@@H](O)CN1; hArg = N=C(N)NCCCC[C@H](N)C(=O)O; 4Pal = N[C@@H](Cc1ccncc1)C(=O)O; Tle = CC(C)(C)[C@H](N)C(=O)O; Aib = CC(C)(N)C(=O)O; βAla = NCCC(=O)O; Sar = CNCC(=O)O
# B1: Bicycle Compound Number 133 (TBMB scaffold) (peptide)
# peptide: [Sar][Sar]ACP[1Nal]GPFWCPV[dA][hArg]PGC
# modifications: linker 4-11-18 via TBMB
# notes: also called Sar2-ACP(1Nal)GPFWCPV(D-Ala)(HArg)PGC
# B2: Bicycle Compound Number 127 (TBMB scaffold) (peptide)
# peptide: [Sar][Sar]ACP[1Nal]G[Aib]FWCPV[dA]RPGC
# modifications: linker 4-11-18 via TBMB
# notes: also called Sar2-ACP(1Nal)G(Aib)FWCPV(D-Ala)RPGC
# B3: Bicycle Compound Number 131 (TBMB scaffold) (peptide)
# peptide: [Sar][Sar]ACP[1Nal]GPFWCP[Tle]NR[Aib]GC
# modifications: linker 4-11-18 via TBMB
# notes: also called Sar2-ACP(1Nal)GPFWCP(tBuGly)NR(Aib)GC
# B4: Bicycle Compound Number 115 (TBMB scaffold) (peptide)
# peptide: [Sar][Sar]ACP[1Nal]GPFWCPV[dA]RPGC
# modifications: linker 4-11-18 via TBMB
# notes: also called Sar2-ACP(1Nal)GPFWCPV(D-Ala)RPGC
# B5: Bicycle Compound Number 117 (TBMB scaffold) (peptide)
# peptide: [Sar][Sar]ACPWGPF[1Nal]CPV[dA]RPGC
# modifications: linker 4-11-18 via TBMB
# notes: also called Sar2-ACPWGPF(1Nal)CPV(D-Ala)RPGC
# B6: Bicycle Compound Number 121 (TBMB scaffold) (peptide)
# peptide: [Sar][Sar]ACP[1Nal]GPFWCP[Tle]NRPGC
# modifications: linker 4-11-18 via TBMB
# notes: also called Sar2-ACP(1Nal)GPFWCP(tBuGly)NRPGC
# B7: Bicycle Compound Number 132 (TBMB scaffold) (peptide)
# peptide: [Sar][Sar]ACP[1Nal]GPFWCP[Tle]NRP[dA]C
# modifications: linker 4-11-18 via TBMB
# notes: also called Sar2-ACP(1Nal)GPFWCP(tBuGly)NRP(D-Ala)C
# B8: Bicycle Compound Number 129 (TBMB scaffold) (peptide)
# peptide: [Sar][Sar]ACP[1Nal]GPFWCP[Tle][dA]RPGC
# modifications: linker 4-11-18 via TBMB
# notes: also called Sar2-ACP(1Nal)GPFWCP(tBuGly)(D-Ala)RPGC
# B9: Bicycle Compound Number 126 (TBMB scaffold) (peptide)
# peptide: [Sar][Sar]ACP[1Nal]G[Aib]FWCP[Tle]NRPGC
# modifications: linker 4-11-18 via TBMB
# notes: also called Sar2-ACP(1Nal)G(Aib)FWCP(tBuGly)NRPGC
# Biological target: T1, Human EphA2 (Ecto), C-terminal polyHis (Human, UniProt P29317 24-537)
# T1 construct: extracellular domain; also called EPH receptor A2; ephrin type-A receptor 2
# Assay: fluorescence polarisation competition; competitor fluorescent Compound 18
# Method: (§1) Peptides without a fluorescent tag were tested in competition with a peptide with a fluorescent tag and a known Kd (Table 2). Peptides were diluted to an appropriate concentration in assay buffer as described in the direct binding assay with a maximum of 5% DMSO, then serially diluted 1 in 2. […] Measurements were conducted as for the direct binding assay, however the gain was determined prior to the first measurement. Data analysis was in Systat Sigmaplot version 12.0 where the mP values were fit to a user defined cubic equation to generate a Ki value: […]
# T1 sequence (P29317 24-537): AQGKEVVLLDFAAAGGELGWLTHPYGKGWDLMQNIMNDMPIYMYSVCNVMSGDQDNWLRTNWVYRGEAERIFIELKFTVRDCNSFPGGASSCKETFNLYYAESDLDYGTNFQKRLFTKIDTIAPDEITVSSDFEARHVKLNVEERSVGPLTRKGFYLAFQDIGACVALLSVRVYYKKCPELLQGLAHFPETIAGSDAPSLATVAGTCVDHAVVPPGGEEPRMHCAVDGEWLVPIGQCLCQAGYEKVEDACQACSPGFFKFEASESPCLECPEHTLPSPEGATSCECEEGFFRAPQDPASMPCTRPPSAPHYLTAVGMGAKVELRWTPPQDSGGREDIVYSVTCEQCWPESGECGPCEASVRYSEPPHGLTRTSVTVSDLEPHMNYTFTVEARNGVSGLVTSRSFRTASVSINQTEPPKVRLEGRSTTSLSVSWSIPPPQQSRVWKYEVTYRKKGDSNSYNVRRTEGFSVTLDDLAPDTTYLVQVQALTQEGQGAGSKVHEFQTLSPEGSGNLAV
row,Binder,Ki [nM]
1,"[Sar][Sar]ACP[1Nal]GPFWCPVN[hArg]PGC (linker 4-11-18 via TBMB, also called Compound 122) [Bicycle Compound Number 122 (TBMB scaffold)]",9.55
2,[Sar][Sar]ACP[1Nal]GPFWCPVN[hArg]P[dA]C (linker 4-11-18 via TBMB) [Bicycle Compound Number 134 (TBMB scaffold)],1.2
3,B1,14
4,"[Sar][Sar]ACPWGPFWCPVNR[Aib]GC (linker 4-11-18 via TBMB, also called Compound 110) [Bicycle Compound Number 110 (TBMB scaffold)]",75
5,[Sar][Sar]ACPWG[Aib]F[1Nal]CPVNRPGC (linker 4-11-18 via TBMB) [Bicycle Compound Number 123 (TBMB scaffold)],63
6,B2,40
7,[Sar][Sar]ACP[1Nal]G[Aib]FWCPVNRP[dA]C (linker 4-11-18 via TBMB) [Bicycle Compound Number 128 (TBMB scaffold)],15
8,"[Sar][Sar]ACPWGPAWCPVNRPGC (linker 4-11-18 via TBMB′, also called Compound 83) [Bicycle Compound Number 83 (TBMB scaffold)]",199
9,[Sar][Sar]ACPWGPFWCPVNRPAC (linker 4-11-18 via TBMB) [Bicycle Compound Number 111 (TBMB scaffold)],108
10,[Sar][Sar]ACPWGPFWCPVNRAGC (linker 4-11-18 via TBMB) [Bicycle Compound Number 104 (TBMB scaffold)],124
11,[Sar][Sar]ACPWGPFWCPV[dA]RPGC (linker 4-11-18 via TBMB) [Bicycle Compound Number 102 (TBMB scaffold)],317
12,"ADVHCPWGPFWCPVNRPGCA (linker 5-12-19 via TBMB (inferred), also called Compound 57) [Bicycle Compound Number 57 (TBMB scaffold)]",0.48
13,[Sar][Sar]AC[Aib][1Nal]GPFWCPVNRPGC (linker 4-11-18 via TBMB) [Bicycle Compound Number 113 (TBMB scaffold)],10
14,[Sar][Sar]AC[Aib][1Nal]GPFWCPVNRP[dA]C (linker 4-11-18 via TBMB) [Bicycle Compound Number 125 (TBMB scaffold)],6.4
15,B3,11
16,[Sar][Sar]ACPWGPFWCPVN[hArg]PGC (linker 4-11-18 via TBMB) [Bicycle Compound Number 103 (TBMB scaffold)],126
17,B4,12.5
18,[Sar][Sar]ACP[1Nal]GPFWCPVNRP[dA]C (linker 4-11-18 via TBMB) [Bicycle Compound Number 116 (TBMB scaffold)],2.95
19,"[Sar][Sar]ACPWGPF[1Nal]CPVNRPGC (linker 4-11-18 via TBMB′, also called Compound 96) [Bicycle Compound Number 96 (TBMB scaffold)]",31.3
20,B5,53
21,"[Sar][Sar]ACPWGPFWCP[Tle]NRPGC (linker 4-11-18 via TBMB, also called Compound 100) [Bicycle Compound Number 100 (TBMB scaffold)]",58.3
22,"[Sar][Sar]ACPWGP[4Pal]WCPVNRPGC (linker 4-11-18 via TBMB′, also called Compound 84) [Bicycle Compound Number 84 (TBMB scaffold)]",33.5
23,B6,3.65
24,B7,7.7
25,B8,23
26,"[Sar][Sar]ACP[1Nal]GPF[1Nal]CPVNRPGC (linker 4-11-18 via TBMB, also called Compound 120) [Bicycle Compound Number 120 (TBMB scaffold)]",1.4
27,[Sar][Sar]ACPWGPFWCPVNR[Hyp]GC (linker 4-11-18 via TBMB) [Bicycle Compound Number 107 (TBMB scaffold)],48.7
28,B9,15
29,"AEGLPCPWGPFWCPVNRPGCA (linker 6-13-20 via TBMB (inferred), also called Compound 55) [Bicycle Compound Number 55 (TBMB scaffold)]",11.3

# Biological target: T1, Human EphA2 (Ecto), C-terminal polyHis
# Assay: fluorescence polarisation competition; competitor fluorescent Compound 66
# Method: as §1
row,Binder,Ki [nM]
1,"[Sar][Sar]ACP[1Nal]GPFWCPVN[hArg]PGC (linker 4-11-18 via TBMB, also called Compound 122) [Bicycle Compound Number 122 (TBMB scaffold)]",8
2,[Sar][Sar]ACP[1Nal]GPFWCPVN[hArg]P[dA]C (linker 4-11-18 via TBMB) [Bicycle Compound Number 134 (TBMB scaffold)],6.15
3,B1,3.7
4,"[Sar][Sar]ACPWGPFWCPVNR[Aib]GC (linker 4-11-18 via TBMB, also called Compound 110) [Bicycle Compound Number 110 (TBMB scaffold)]",140
5,[Sar][Sar]ACPWG[Aib]F[1Nal]CPVNRPGC (linker 4-11-18 via TBMB) [Bicycle Compound Number 123 (TBMB scaffold)],46
6,B2,33
7,[Sar][Sar]ACP[1Nal]G[Aib]FWCPVNRP[dA]C (linker 4-11-18 via TBMB) [Bicycle Compound Number 128 (TBMB scaffold)],16
8,"[Sar][Sar]ACPWGPAWCPVNRPGC (linker 4-11-18 via TBMB′, also called Compound 83) [Bicycle Compound Number 83 (TBMB scaffold)]",288
9,[Sar][Sar]ACPWGPFWCPVNRPAC (linker 4-11-18 via TBMB) [Bicycle Compound Number 111 (TBMB scaffold)],238
10,[Sar][Sar]ACPWGPFWCPVNRAGC (linker 4-11-18 via TBMB) [Bicycle Compound Number 104 (TBMB scaffold)],194
11,[Sar][Sar]ACPWGPFWCPV[dA]RPGC (linker 4-11-18 via TBMB) [Bicycle Compound Number 102 (TBMB scaffold)],312
12,"ADVHCPWGPFWCPVNRPGCA (linker 5-12-19 via TBMB (inferred), also called Compound 57) [Bicycle Compound Number 57 (TBMB scaffold)]",1.2
13,[Sar][Sar]AC[Aib][1Nal]GPFWCPVNRPGC (linker 4-11-18 via TBMB) [Bicycle Compound Number 113 (TBMB scaffold)],6.6
14,[Sar][Sar]AC[Aib][1Nal]GPFWCPVNRP[dA]C (linker 4-11-18 via TBMB) [Bicycle Compound Number 125 (TBMB scaffold)],0.61
15,B3,6.8
16,[Sar][Sar]ACPWGPFWCPVN[hArg]PGC (linker 4-11-18 via TBMB) [Bicycle Compound Number 103 (TBMB scaffold)],169
17,B4,1.64
18,[Sar][Sar]ACP[1Nal]GPFWCPVNRP[dA]C (linker 4-11-18 via TBMB) [Bicycle Compound Number 116 (TBMB scaffold)],3.2
19,"[Sar][Sar]ACPWGPF[1Nal]CPVNRPGC (linker 4-11-18 via TBMB′, also called Compound 96) [Bicycle Compound Number 96 (TBMB scaffold)]",68.1
20,B5,75
21,"[Sar][Sar]ACPWGPFWCP[Tle]NRPGC (linker 4-11-18 via TBMB, also called Compound 100) [Bicycle Compound Number 100 (TBMB scaffold)]",112
22,"[Sar][Sar]ACPWGP[4Pal]WCPVNRPGC (linker 4-11-18 via TBMB′, also called Compound 84) [Bicycle Compound Number 84 (TBMB scaffold)]",81.5
23,B6,2
24,B7,8.7
25,B8,15
26,"[Sar][Sar]ACP[1Nal]GPF[1Nal]CPVNRPGC (linker 4-11-18 via TBMB, also called Compound 120) [Bicycle Compound Number 120 (TBMB scaffold)]",0.98
27,[Sar][Sar]ACPWGPFWCPVNR[Hyp]GC (linker 4-11-18 via TBMB) [Bicycle Compound Number 107 (TBMB scaffold)],85.8
28,B9,19
29,"AEGLPCPWGPFWCPVNRPGCA (linker 6-13-20 via TBMB (inferred), also called Compound 55) [Bicycle Compound Number 55 (TBMB scaffold)]",6.15

# Biological target: Human EphA2 (Ecto) (Human) (UniProt P29317)
# Assay: FP competition, tracer Compound 18
# Human EphA2 (Ecto) (Human), sequence (P29317 24-537): as the sequence (P29317 24-537) above
row,Binder,Ki [nM]
1,Ac-[Sar][Sar]A[dD]VTCP[1Nal]G[Aib]F[1Nal]CP[Tle]NR[Aib]GC (linker 7-14-21 via TBMB) [Bicycle Compound 183],1.02
2,[βAla][Sar][Sar][Sar][Sar][Sar][Sar][Sar][Sar][Sar][Sar]H[dD]VPC[Aib][1Nal]G[Aib]F[1Nal]CP[Tle]N[hArg][Aib][dD]C (linker 16-23-30 via TBMB) [Bicycle Compound 238],2.83
3,[βAla][Sar][Sar][Sar][Sar][Sar][Sar][Sar][Sar][Sar][Sar]H[dD]VPC[Aib][1Nal]G[Aib]FWCP[Tle]N[hArg]P[dD]C (linker 16-23-30 via TBMB) [Bicycle Compound 242],7.77
4,[βAla][Sar][Sar][Sar][Sar][Sar][Sar][Sar][Sar][Sar][Sar]H[dD]VPC[Aib][1Nal]GP[hArg][1Nal]CP[Tle]NR[Aib]GC (linker 16-23-30 via TBMB) [Bicycle Compound 243],2.83
5,Ac-[Sar][Sar]A[dD]VTCP[1Nal]G[Aib]F[1Nal]CP[Tle]N[hArg]PGC (linker 7-14-21 via TBMB) [Bicycle Compound 182],1.16
6,[βAla][Sar][Sar][Sar][Sar][Sar][Sar][Sar][Sar][Sar][Sar]H[dD]VPC[Aib][1Nal]G[Aib]F[1Nal]CP[Tle]NR[Aib]GC (linker 16-23-30 via TBMB) [Bicycle Compound 239],4.91
7,[βAla][Sar][Sar][Sar][Sar][Sar][Sar][Sar][Sar][Sar][Sar]H[dD]VPC[Aib][1Nal]G[Aib]F[1Nal]CP[Tle]NRPGC (linker 16-23-30 via TBMB) [Bicycle Compound 234],3.94
8,[βAla][Sar][Sar][Sar][Sar][Sar][Sar][Sar][Sar][Sar][Sar]H[dD]VPC[Aib][1Nal]G[Aib]F[1Nal]CP[Tle]N[hArg]PGC (linker 16-23-30 via TBMB) [Bicycle Compound 235],2.58
9,Ac-[Sar][Sar]A[dH]DVPCP[1Nal]G[Aib]F[1Nal]CP[Tle]N[hArg]PGC (linker 8-15-22 via TBMB) [Bicycle Compound 231],1.93
10,Ac-[Sar][Sar]A[dH]DVPCP[1Nal]G[Aib]F[1Nal]CP[Tle]NR[Aib]GC (linker 8-15-22 via TBMB) [Bicycle Compound 232],0.9
11,Ac-[Sar][Sar]A[dD]VTCP[1Nal]G[Aib]F[1Nal]CP[Tle]N[hArg]P[dD]C (linker 7-14-21 via TBMB) [Bicycle Compound 184],1.19
